Test results published in the nanobody polyreactivity screen of Harvey et al. (2022).

Experiment: yeast display, Sf9 membrane polyspecificity reagent, FACS + sequencing; frameworks hold sequencing errors
In short: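 After 36–48 hours of galactose induction, yeast (Saccharomyces cerevisiae BJ5465) displaying a synthetic nanobody library were stained at 4 °C for 1 hour with 10% biotinylated, detergent-solubilized Sf9 membrane reagent. Streptavidin microbeads enriched the stained cells before FACS sorting into low and high (top ~1%) gates on anti-HA and streptavidin fluorescence. Each clone's polyreactivity label reflects its gate of origin.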

Row | Sequence | polyreactivity (PSR sort gate)
1 | QVQLVESGGGLVQAGGSLRLSCAASGFTFPWYAMGWYRQAPGKERELVATITRGGSTYYADSVKGRFTISRDNAKNTVYLQMNSLKPEDTAVYYCAVTYWRYHSYSPYDYWGQGTQVTVSS | high polyreactivity
2 | QVQLVESGGGLVQAGGSLRLSCAASGFTFPWYTMGWYRQAPGKERELGAAINSRGGSTYYADSVKGRFTISRDNAKNTVYLQMNSLKPEDTAVYYCATRSFGRMDYWGQGTQVTVSS | high polyreactivity
3 | QVQLVESGGGLVQAGGSLRLSCAASGFTFPYYAMGWYRQAPGKERELVAAISSGGNTNYADSVKGRFTISRDNAKNTVYLQMNSLKPEDTAVYYCAAVFLRYLNWSVKYDYWGQGTQVTVSS | low polyreactivity
4 | QVQLVESGGGLVQAGGSLRLSCAASGFTFQENAMGWYRQAHGKERELVAAISTSGDSTYYADSVKGRFTISRDNAKNTVYLQMNSLKPEDTAVYYCATAYEVLVACVLYDYWGKGTQVTVSS | low polyreactivity
5 | QVQLVESGGGLVQAGGSLRLSCAASGFTFQENAMGWYRQATGKERELVAAISKSGGITYYADSVKGRFTISRENAKNNVYLQMNSLKPEDTAVYYCNIGNAYVVYTSGYDYWGQGTQVTVSS | low polyreactivity
6 | QVQLVESGGGLVQAGGSLRLSCAASGFTFQFYAMGWYRQAPGKERELVAAITWSGGSTYYADSVKGRFTISRDNAKNSVYLQLKSLKPEDTAVYFCAKDRRTYLSYIYDYWGQGTQVTVSS | high polyreactivity
7 | QVQLVESGGGLVQAGGSLRLSCAASGFTFQIYAMGWYRQAPGKERELVAAITWSGGRTYYGDSVKGRFTISRDNAKNTVYLQMNSLKREDTAVYYSNARYTTGSDPGGPGTYGYWGQGTQVTVSS | low polyreactivity
8 | QVQLVESGGGLVQAGGSLRLSCAASGFTFQRNAMGWYRPAPGKERELVAAISKSGGSTYYADSVKGRFTISRDNAKNTVYLQMNSLKPEDTAVYYCARDRGYQSGYDYWGQGTQVTVSS | high polyreactivity
9 | QVQLVESGGGLVQAGGSLRLSCAASGFTFQRYAMGWYRQAPGKERELVAAISGSGGSTYYADSVKGRFTISRDNAKNTVYLQMNSLKPEDTAVYYCAARYKYKDLYRYDYWGQGTQVTVSS | high polyreactivity
10 | QVQLVESGGGLVQAGGSLRLSCAASGFTFQRYAMGWYRQAPGKERELVAGITRRSGSTFYADSVKGRFTISRDNAKNNVYLLMNSLKPEDTAVYYCAATVPGLHWIYDFWGQGTQVTVSS | high polyreactivity
11 | QVQLVESGGGLVQAGGSLRLSCAASGFTFQSNAMGWYRQAPGKERELVATISLTGGSTYYADSVKGRFTISRDNAKNTVYLQMNSLKPEDTAVYYCNAVRYASPYGYWGQGTQVTVSS | high polyreactivity
12 | QVQLVESGGGLVQAGGSLRLSCAASGFTFQYYAMGWYRQAPGKERELVAAISRSGGSTYYADSVKGRFTISRDNAKNTVYLQMNSLKPEDTAVYYCAKDRVGARRTDYDYWGQGTQVTVSS | high polyreactivity
13 | QVQLVESGGGLVQAGGSLRLSCAASGFTFQYYTMGWYRQAPGKERELVAAISGSGGRTYYADSVKGRFTISRDNAKNTVYLQMNSLKPEDTAVYYCAKVYNRVYYGKGDYWGQGTQVTVSS | high polyreactivity
14 | QVQLVESGGGLVQAGGSLRLSCAASGFTFRANGMGWYRQATGKERELVATITSGGTTNYADSVKGRFTISRDNAKNTVYLQMNSLKPEDTAVYYCAKRFGPAYFRLYDYWGQGTQVTVSS | low polyreactivity
15 | QVQLVESGGGLVQAGGSLRLSCAASGFTFRAYAMGWYRQAPGKEREFVAAISRRGGSTSYADSVKGRFTISRDIAKNTVYLQMNSQKPEDTSVYYCAADVQEEYDYWGQGTQVTVSS | high polyreactivity
16 | QVQLVESGGGLVQAGGSLRLSCAASGFTFRAYAMGWYRQAPGKERELVAAINISGGSTYYADSVKGRFTISRDNAKNTVYLQMNSLKPEDTAVYYCAADWPEDWYTEYGYWGQGTQVTVSS | low polyreactivity
17 | QVQLVESGGGLVQAGGSLRLSCAASGFTFRAYAMGWYRQAPGKERELVAAITSGTRTYYADSVKGRFTISRDNAKNTVYLQMNSLKPEDTAVYDCAVGFILPSTFTRMYYWGQGTQVTVSS | high polyreactivity
18 | QVQLVESGGGLVQAGGSLRLSCAASGFTFRAYAMGWYRQAPGKERELVAGITRSGGSTHYADSVKGRFTISRDNAKNTVYLQMNSLKPEDTAVYYCNARYPYRGKRKPPDYWGQGTQVTVSS | high polyreactivity
19 | QVQLVESGGGLVQAGGSLRLSCAASGFTFRAYTMGWYRQAPGKERELVAAITYSGGRTYYADSVKGRFTISRDNAKNTVYLQMNSLKPEDTAVYYCATRGWALSEYYYWGQGTQVTVSS | high polyreactivity
20 | QVQLVESGGGLVQAGGSLRLSCAASGFTFRAYTMGWYRQAPGTERGLVAAITYSGGRTYYADSVKGRFTISRDNAKNTVYLQMNSLKPEDTAVYYCAAVRTKVWRGPEMDYWGQGTQVTVSS | high polyreactivity
21 | QVQLVESGGGLVQAGGSLRLSCAASGFTFRAYVMGWSRQAPGKERELVAAISRSGGSTYYADSVKGRLTISRDNAKNTVYLQMNSLKPEDTAVYYCAAGVPGPRVKIQARFDYWGQGTQVTVSS | high polyreactivity
22 | QVQLVESGGGLVQAGGSLRLSCAASGFTFRDYAMGWSRQAPGKERELVAAISRSGDSTYYADSVKGRFTISRDNAKNTVYLQMNSLKPEDTAVYYYAAKRRYTTYDYWGQGTQVTVSS | high polyreactivity

Row | Sequence | polyreactivity (PSR sort gate)
23 | QVQLVESGGGLVQAGGSLRLSCAASGFTFRDYAMGWYRQAPGKEREFIADITFSGDNTRYADSVKGRFTISRDNAKNTVYLQMNSLKREDTAVYYCNADYLVSWLQFDYWGQGTQVTVSS | low polyreactivity
24 | QVQLVESGGGLVQAGGSLRLSCAASGFTFRDYAMGWYRQAPGKERELVAAISFSGGRTFYADSVKGRFTISRDNAKNTVYLQMNSLKPEDTAVYYCNAQYLTYRYYPRRNLDYWGQGTQVTVSS | high polyreactivity
25 | QVQLVESGGGLVQAGGSLRLSCAASGFTFRFNAMGWYIQAPGKERELVAAIRQSGGSTYYADSVKGRFTISRDNAKNTVYLQMNSLKPEDTAVYYCATRYFTGYGLRPQFYYWGQGTQVTVSS | high polyreactivity
26 | QVQLVESGGGLVQAGGSLRLSCAASGFTFRGNAMGLYRQAPRKERELVATITYNAGSTYYADSVKGRFTISRDNAKNTVYLQMNSLKPEDTAVYYCAVELDSVPDYEPWTEYDYWGQGTQVTVSS | low polyreactivity
27 | QVQLVESGGGLVQAGGSLRLSCAASGFTFRGYAMGWYRPAPGKERELVAAIRGGGGRTYYADSVKGRFTISRDNAKNTVYLQMNSLKPEDTAVYYCAKVVSIRNDEYDYWGQGTQVTVSS | high polyreactivity
28 | QVQLVESGGGLVQAGGSLRLSCAASGFTFRGYAMGWYRQAPGKERELVADITSGGSTYYADSVKGRFTISRDNAKNTVYLQMNSLKPEDTAVYYFATDILYWSDYAYEGYYTLDYYWGQGTQVTVSS | high polyreactivity
29 | QVQLVESGGGLVQAGGSLRLSCAASGFTFRGYVMGGYRQAPGKERELVAAITNIGTSTYYAHSVKGRFTISRDNAKNTVYVQMNSLKPEDTGVFFCAARLSTKFYYWGQVTQVTVSS | low polyreactivity
30 | QVQLVESGGGLVQAGGSLRLSCAASGFTFRHNGMGWYIQAPGKERELVATITWSGGRTSYADSVKGRFTISRDNAKNTVYLQMNSLKPEDTAVYYCAARFFSYSQYAYNYWGQGTQVTVSS | high polyreactivity
31 | QVQLVESGGGLVQAGGSLRLSCAASGFTFRIYAMGWYRQAPGKERELVAAITSSGGTTYYADSVKGRFTISRDNAKNTVYLQMNSLKPEDTAVYYCNVAGFKYYSWGTYDYWGQGTQVTVSS | high polyreactivity
32 | QVQLVESGGGLVQAGGSLRLSCAASGFTFRIYAMGWYRQAPGKERELVAAITSVGSTYYADSVKGRFTISRDNAKNTVYLQMNRLKPEDTAVYYCNARATYYRFRYPYGYWGQGTQVTVSS | high polyreactivity
33 | QVQLVESGGGLVQAGGSLRLSCAASGFTFRIYTMGWYRQAPGKERELVAAISSRGGSTYYADSVKGRFTISRDNAKNTVDLQMNSLKPEDTAVYYCAASGRVYSSGYDYWGQGTQVTVSS | high polyreactivity
34 | QVQLVESGGGLVQAGGSLRLSCAASGFTFRKYAMGWYRQAPGKERELVASITSGGSTYYADSVKGRFTISRDNAKNTVYLQMNSLKPEDTAVYYCNAVKATLASGRLRGAYYYWGQGTQVTVSS | high polyreactivity
35 | QVQLVESGGGLVQAGGSLRLSCAASGFTFRQYALGWYRQAPGKERELVAAISSGGSTYYADSVKGRFTISRDNAKNTVYLQMNSLKPEDTAVYYCNAVARYYVAYDMYWGQGTQVTVSS | high polyreactivity
36 | QVQLVESGGGLVQAGGSLRLSCAASGFTFRQYSMGWYRQARGKERELVAGISSSGGSTRYADSVKGRFTISRDNAKNTVYFQMNSLKPEDTAVYYCAARIASHHYYYWGQVTQVTVSS | high polyreactivity
37 | QVQLVESGGGLVQAGGSLRLSCAASGFTFRRNAMGWYRQAPGKERELVAAITGRGTGTYYADSVKGRFTISRDNAKNTVYLQMNSLKPEDTAVYYCNADPVRYLFTRYDYWGQGTQVTVSS | high polyreactivity
38 | QVQLVESGGGLVQAGGSLRLSCAASGFTFRRNAMGWYRQAPGKERELVAVITTAGSTNYADSVKGRFTISRDNAKNTVYLQMTSLKPEDTAVYYCATDNGTRKRRYDYWGQGTQVNVSS | low polyreactivity
39 | QVQLVESGGGLVQAGGSLRLSCAASGFTFRRNVMGWYRQAPGKERELVAAIRGSDGSTYYADSVKGRFTISRDNAKNTVYLQMNSLKPEDTAVYYCNVVGKGLYRKMGYWGQGTQVTVSS | high polyreactivity
40 | QVQLVESGGGLVQAGGSLRLSCAASGFTFRRYAMGWYRQAPGKERELVAGITGRGGSTYYADSVKGRFTISRDNSKNTVYLQMNSLKPEDTAVYYCNKPRAARGYLTGQLDYWGQGTQVTVSS | high polyreactivity
41 | QVQLVESGGGLVQAGGSLRLSCAASGFTFRRYAMGWYRQAPGKERVLVAAITRGSSTYYADSVKGRFTISRDNEKNTVYLQMNSLKPEDTAVYYCAAAGFWSRPSDYWGQGTQVTVSS | low polyreactivity
42 | QVQLVESGGGLVQAGGSLRLSCAASGFTFRRYDMGWYRQAPGKERELVATINRGGSTDYADSVKGRFTISRDNAKNTVYLQMNSLKAEDTAVYYCATRYYSSRTWSEYYYWGQGTKVTVSS | high polyreactivity
43 | QVQLVESGGGLVQAGGSLRLSCAASGFTFRRYTMGWYRQAPGKERELVAAISGRGGRTYYADSVKGRFTISRDNSKNTVYLQMNSLNPEDTAVYYCAADTQYWQSSKYDYWGQGTQVTVSS | high polyreactivity
